Test results taken from patent publication US7407934.
pIC50: −log10 of the molar value.

The substances below were run against amylin receptor (rat basal forebrain membranes containing the nucleus accumbens and surrounding regions) (rat) (assay: competition with 125I-Bolton-Hunter rat amylin on rat basal forebrain membranes, filtration).

Sequence of 28Pro-h-Amylin (peptide) (peptide): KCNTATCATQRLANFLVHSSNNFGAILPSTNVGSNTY
Sequence of 29Pro-h-Amylin (peptide) (peptide): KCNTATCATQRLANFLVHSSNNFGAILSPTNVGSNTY

Going from 28Pro-h-Amylin (peptide) to 29Pro-h-Amylin (peptide), the pIC50 falls from 10.82 to 10.19 (0.63 log units). The first is the more potent here.

Going from 1Ala-h-Amylin (peptide) to “purified human amylin (from UniProt P10997 34-70) (peptide)”, the pIC50 rises from 9.83 to 10.30 (0.47 log units). The second is the more potent here.

1Ser-h-Amylin (peptide) showed a pIC50 of 10.48.
